Assay results as given in patent publication US20070105771A1 (Y S THERAPEUTICS, published 2007).

Legend:
Assay in all cases: peptide microarray
[1] = target: T1, human CD26-derived 13 mer peptide 96 (human)
T1 peptide: YSFYSDESLQYPK
Procedure: (§1) The overnight incubation was followed by three washings with each of PBS buffer pH 7.5 and water. The microarrays were then scanned using ArrayWorx-Microarray Scanner.
(§2) The SPOT recognition software package ArrayPro was used for data analysis. The mean of signal intensities from 3 identical subarrays on each microarray image was used for data evaluation.

[2] = target: T2, human CD26-derived 13 mer peptide 98 (human)
T2 peptide: SDESLQYPKTVRV
Procedure: as §1, §2

[3] = target: T3, human CD26-derived 13 mer peptide 115 (human)
T3 peptide: LSSVTNATSIQIT
Procedure: as §1, §2

[4] = target: T4, human CD26-derived 13 mer peptide 4 (human)
T4 peptide: RLKLYSLRWISDH
Procedure: as §1, §2

[5] = target: T5, human CD26-derived 13 mer peptide 17 (human)
T5 peptide: NAEYGNSSVFLEN
Procedure: as §1, §2

B1: rhuMAb 411 (antibody, human IgG1, kappa, V domains shown)
VH: EVQLVESGAGVKQPGGTLRLTCTASGFSLTTYGVHWVRQAPGKGLEWVGVIWGDGRTDYDAAFMSRVTISKDTSKSTVYLQMNSLRAEDTAVYYCMRNRHDWFDYWGQGTTVTVSS
VL: DILLTQSPSSLSATPGERATITCRASQGIRNNLNWYQQKPGQAPRLLIYYSSNLQSGVPSRFSGSGSGTDFTLTISRLQPEDVAAYYCQQSIKLPFTFGSGTKVEIKR
notes: also called X411
Mean Signal Value [1]: 0.0144 | Mean Signal Value [2]: 0.00481 | Mean Signal Value [3]: 0.0673 | Mean Signal Value [4]: 51.3 | Mean Signal Value [5]: 0.0625
